± gives the standard deviation of the averaged measurements.
Tested on: Saccharomyces cerevisiae
Assay: protein stability index of tFT-peptide fusion (C-terminal peptide) (PSI (0-1 scale)); higher = more stable (slower turnover)
Settings: genetic background: wild type; temperature: 30 C
Method: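 Multiplexed protein stability (MPS) profiling in S. cerevisiae. Random 12-aa peptides (tFT-X12 library) are fused to the C-terminus of a sfGFP-mCherry tandem fluorescent timer, after mCherry and a GGGS linker. Cells are FACS-sorted into 8 mCherry/sfGFP bins and deep-sequenced. The protein stability index (PSI) is the read-weighted bin average, scaled from 0 (unstable) to 1 (stable). Only peptides with >10 reads are reported; cells were grown at 30 °C in SC-His with glucose.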
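Note: PSI is a weighted mean of sequencing reads over stability bins, variants kept only with over 10 reads, mCherry proximal and sfGFP distal, peptide attached via GGGS linker.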

Sequence	protein stability index
GVEVAGCPGARG	0.655 ± 0.042
GVFCHILAFLWC	0.512 ± 0.019
GVFFVRAGSVYC	0.579 ± 0.019
GVFHAWAWCCGF	0.78 ± 0.099
GVGAALDVWRRR	0.696 ± 0.033
GVGGAGIGVGMG	0.705 ± 0.032
GVGGCVMGVGRV	0.64763 ± 0.00048
GVGGFLGVVGVG	0.5857 ± 0.0019
GVGGGISGGRWG	0.666 ± 0.088
GVGGGSRGVCLG	0.638 ± 0.094
GVGGVCEMVAIK	0.506 ± 0.028
GVGLGGFGVWGV	0.73 ± 0.074
GVGLGRVWVKLG	0.708 ± 0.06
GVGLWGVGFRGG	0.7 ± 0.034
GVGSGNMEEEGQ	0.679 ± 0.034
GVGSTGAKTVRG	0.693 ± 0.018
GVGWGSRGVCLG	0.659 ± 0.095
GVLHPPARPPPL	0.654 ± 0.024
GVLVFGLGLVRD	0.623 ± 0.027
GVLVGGERRWVL	0.699 ± 0.053
GVQDEERYSRSE	0.6563 ± 0.0063
GVRATRMGGGPL	0.706 ± 0.015
GVRVRAGYDVRA	0.6619 ± 0.0033
GVSLLCLFLGSP	0.6212 ± 0.0041
GVTDRGIDCGIK	0.658 ± 0.023

Sequence	protein stability index
GVTNRQMAWCFS	0.606 ± 0.071
GVVGGGEDRWSV	0.738 ± 0.032
GVVGGWRGAGWR	0.736 ± 0.064
GVVGWTAGLRGG	0.734 ± 0.045
GVVLVARVTGSS	0.662 ± 0.075
GVVNSGVFGINS	0.693 ± 0.054
GVVRGEAGVIGR	0.817 ± 0.087
GVVWMSCGGWGG	0.764 ± 0.028
GVWAVGGGGGGR	0.665 ± 0.069
GVWCDIVLPGVM	0.704 ± 0.052
GVWFWRLKGEGN	0.713 ± 0.045
GVWGGVGGWGVA	0.697 ± 0.053
GVWTRTWSLQWI	0.561 ± 0.015
GWGCCWSVAWTF	0.614 ± 0.026
GWGGSTLRGVRR	0.719 ± 0.03
GWRACGRGLVGK	0.712 ± 0.011
GWRGGCRSGVPE	0.665 ± 0.064
GWRVSQVLGGDR	0.741 ± 0.042
GWRVVWAVCGHF	0.597 ± 0.092
GWSLDYGSTGDR	0.812 ± 0.018
GWSSSCTATRSA	0.743 ± 0.045
GWSWGGVRTGSC	0.841 ± 0.092
GWVNKQVVTEAH	0.728 ± 0.085
GWVPDGCVGSIG	0.653 ± 0.069
GWVREAVGFRGG	0.687 ± 0.028

Sequence	protein stability index
GWVVGGGRLGVV	0.723 ± 0.095
GWVVGRGRLGVV	0.655 ± 0.028
GYDEREKPVLLR	0.753 ± 0.042
GYEDTLKKILEI	0.673 ± 0.099
GYGNQLILAISN	0.576 ± 0.021
GYGRLVSSQSFR	0.888 ± 0.16
GYKLSIQGYNRK	0.675 ± 0.014
GYLFLGNMTRHN	0.737 ± 0.016
GYLLGCGCGWSG	0.621 ± 0.034
GYRKREMRGELQ	0.678 ± 0.038
GYSYTEFPPEAV	0.708 ± 0.08
HAPFPPLLVSSL	0.625 ± 0.022
HATFLPGLLTIS	0.566 ± 0.026
HDPPPPPPLPRP	0.626 ± 0.024
HDSAGVCFHYWL	0.644 ± 0.011
HEGPGTTEFLGL	0.717 ± 0.059
HFAMCSTTFVIT	0.618 ± 0.029
HFLVGPLSPLLS	0.662 ± 0.019
HGFSRFAACNGV	0.666 ± 0.0071
HGLDPRRGPSGA	0.68426 ± 0.00044
HGQGWRPTYLSI	0.796 ± 0.1
HGRGVEYGVCDN	0.6776 ± 0.0066
HIAKQSSRRRRR	0.68 ± 0.029
HICFPALKPGGA	0.6401 ± 0.0039
HIWQEADGMDTE	0.679 ± 0.022

Sequence	protein stability index
HKAPLLQLTADM	0.662 ± 0.028
HKGKELTNNAML	0.678 ± 0.039
HKHDAVIIGREC	0.7024 ± 0.0042
HKKATRPPTGGN	0.604 ± 0.052
HLAHVCYEVPTY	0.568 ± 0.04
HLFSLGSCLSDP	0.731 ± 0.12
HLGVLDSFLAEG	0.629 ± 0.028
HLIVPESVVHDL	0.747 ± 0.18
HLLGYSLRREFL	0.67 ± 0.054
HLPPSRPSFSAP	0.747 ± 0.015
HLPSHPSLPPAP	0.707 ± 0.029
HLSHVLLGITFV	0.603 ± 0.026
HLSPAPPPPSAP	0.706 ± 0.11
HLTCVVGRDLGI	0.606 ± 0.015
HMHTSKTFSNGP	0.738 ± 0.093
HNSTKTQSLRGT	0.719 ± 0.016
HPPHPPPLPGSP	0.802 ± 0.076
HPPHPPPSPCPP	0.733 ± 0.034
HPPPARSPPSLP	0.741 ± 0.041
HPPPFRSIPEPQ	0.678 ± 0.019
HPPVFFSPCGIL	0.634 ± 0.033
HPSARLPENRTP	0.677 ± 0.038
HPSPLHLPSPPP	0.675 ± 0.0076

Reference: the supplement of paper PMC10724198
